Assay [1] has as its target T1, cynomolgus CD3 (UniProt Q95LI5 22-198).
T1 chain: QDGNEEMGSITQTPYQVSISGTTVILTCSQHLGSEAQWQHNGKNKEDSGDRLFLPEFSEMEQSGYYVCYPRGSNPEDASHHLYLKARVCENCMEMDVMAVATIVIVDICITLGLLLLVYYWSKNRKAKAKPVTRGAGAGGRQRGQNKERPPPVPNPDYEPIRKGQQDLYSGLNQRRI
Description: FACS binding, HSC-F cells. (In general: A flow cytometer gives signals particle by particle.)

For assay [2], the target named is T2, human CD3 (UniProt P07766 22-207). Put plainly: FACS binding, Jurkat cells.
Assay [3] addresses T2, human CD3. Description: FACS binding, Jurkat cells; Fig 1A.
The target in assay [4] is T1, cynomolgus CD3. Description: FACS binding, HSC-F cells; Fig 2A.
The target of assay [5] is T1, cynomolgus CD3. Description: FACS binding, HSC-F cells.
In assay [6] the target is T2, human CD3. Put plainly: FACS binding, Jurkat cells. The source holds these as a separate data set.
For assay [7], the target named is T2, human CD3. Put plainly: FACS binding, Jurkat cells; Fig 1B.
Assay [8] addresses T1, cynomolgus CD3. Put plainly: FACS binding, HSC-F cells; Fig 2B.
Assay [9] has as its target T1, cynomolgus CD3. Put plainly: FACS binding, HSC-F cells; second row printed H4L1; graph legend indicates H4L3.

Positions count from the first letter of the chain named.

T2 sequence (P07766 22-207): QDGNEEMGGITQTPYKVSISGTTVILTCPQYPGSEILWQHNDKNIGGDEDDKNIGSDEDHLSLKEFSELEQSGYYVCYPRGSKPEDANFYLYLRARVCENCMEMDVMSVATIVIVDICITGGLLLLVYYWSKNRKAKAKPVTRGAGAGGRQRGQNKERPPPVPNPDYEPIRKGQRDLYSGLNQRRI

B1: bsIgG1-huCD3-H3L3×HER2-LFLEDA (bispecific antibody, V domains shown)
VH 1: EVKLVESGGGLVKPGRSLRLSCAASGFTFNTYAMNWVRQAPGKGLEWVARIRSKYNNYATYYADSVKDRFTISRDDSKSILYLQMNSLKTEDTAMYYCVRHGNFGNSYVSWFAYWGQGTLVTVSS
VL 1: QAVVTQEPSFSVSPGGTVTLTCRSSTGAVTTSNYANWVQQTPGQAFRGLIGGTNKRAPGVPARFSGSILGNKAALTITGAQADDESDYYCALWYSNLWVFGGGTKLTVL
VH 2: QVQLVQSGAEVKKPGASVKVSCKASGYTFTNYGISWVRQAPGQGLEWMGWLSAYSGNTIYAQKLQGRVTMTTDTSTTTAYMELRSLRSDDTAVYYCARDRIVVRPDYFDYWGQGTLVTVSS
VL 2: EIVLTQSPATLSLSPGERATLSCRASQSVSSYLAWYQQKPGQAPRLLIYDASNRATGIPARFSGSGSGTDFTLTISSLEPEDFAVYYCQQRSNWPRTFGQGTKVEIK
For B1, the EC50 with cynomolgus CD3 [1] turned out to be 0.26 µg/mL; with human CD3 [2], 0.74 µg/mL.

B2: IgG1-huCD3-H3L3 (antibody, V domains shown)
VH: B1 VH 1
VL: B1 VL 1
Take B2: the 50% effective concentration (EC50) with human CD3 [3] came to 0.02 µg/mL; with cynomolgus CD3 [4], 0.11 µg/mL.

B3: bsIgG1-huCD3-H4L1×HER2-LFLEDA (bispecific antibody, V domains shown)
VH 1: B1 VH 1 with L120M
VL 1: not shown
VH 2: B1 VH 2
VL 2: B1 VL 2
In the case of B3, the EC50 was found to be 0.36 µg/mL with cynomolgus CD3 [1] and 0.62 µg/mL in the assay with human CD3 [2].

B4: IgG1-huCD3-H1L1-LFLEDA (antibody, V domains shown)
VH: B1 VH 1 with K13Q, R16G, I80S, S87N
VL: not shown
In the assay with cynomolgus CD3 [5], B4 yielded an EC50 of 0.03 µg/mL.

B5: IgG1-huCD3-H4L1-LFLEDA (antibody, V domains shown)
VH: B1 VH 1 with L120M
VL: not shown
With B5, the half-maximal effective concentration (EC50) with human CD3 [6] was found to be 0.06 µg/mL; with cynomolgus CD3 [5], 0.03 µg/mL.

B6: bsIgG1-huCD3-H1L3×HER2-LFLEDA (bispecific antibody, V domains shown)
VH 1: B1 VH 1 with K13Q, R16G, I80S, S87N
VL 1: B1 VL 1
VH 2: B1 VH 2
VL 2: B1 VL 2
B6: the figures for the concentration giving a half-maximal response (EC50) in the assay with cynomolgus CD3 [1] and with human CD3 [2] were 0.25 µg/mL and 0.58 µg/mL, respectively.

B7: IgG1-huCD3-H4L1 (antibody, V domains shown)
VH: B1 VH 1 with L120M
VL: not shown
B7: the 50% effective concentration (EC50) was found to be 0.05 µg/mL with human CD3 [3] and 0.26 µg/mL with cynomolgus CD3 [4].

B8: bsIgG1 CD3×HER2 (bispecific antibody, V domains shown)
VH 1: B1 VH 1 with V5L, K13Q, G15K, R16G, R19K, K78Q, S87N, S125A
VL 1: QAVVTQESALTTSPGETVTLTCRSSTGAVTTSNYANWVQEKPDHLFTGLIGGTNKRAPGVPARFSGSLIGDKAALTITGAQTEDEAIYFCALWYSNLWVFGGGTKLTVL
VH 2: B1 VH 2
VL 2: B1 VL 2
B8 showed an EC50 with human CD3 [7] of 0.68 µg/mL.

B9: bsIgG1 huCD3-H3L1×HER2-LFLEDA (bispecific antibody, V domains shown)
VH 1: B1 VH 1
VL 1: not shown
VH 2: B1 VH 2
VL 2: B1 VL 2
Regarding B9, the EC50 was determined as 0.28 µg/mL with human CD3 [7], 0.28 µg/mL in the assay with cynomolgus CD3 [1], 3.54 µg/mL with cynomolgus CD3 [8] and 0.64 µg/mL with human CD3 [2].

B10: IgG1-huCD3-H3L3-LFLEDA (antibody, V domains shown)
VH: B1 VH 1
VL: B1 VL 1
For the molecule B10, the results for the EC50 with human CD3 [6] and in the assay with cynomolgus CD3 [5] were 0.08 µg/mL and 0.03 µg/mL, respectively.

B11: IgG1-huCD3-H1L1 (antibody, V domains shown)
VH: B1 VH 1 with K13Q, R16G, I80S, S87N
VL: not shown
In the assay with cynomolgus CD3 [4], B11 yielded an EC50 of 0.37 µg/mL.

B12: IgG1-huCD3-H1L3-LFLEDA (antibody, V domains shown)
VH: B1 VH 1 with K13Q, R16G, I80S, S87N
VL: B1 VL 1
For the molecule B12, the EC50 came out at 0.11 µg/mL in the assay with human CD3 [6] and 0.03 µg/mL in the assay with cynomolgus CD3 [5].

B13: bsIgG1-huCD3-H4L3×HER2-LFLEDA (bispecific antibody, V domains shown)
VH 1: B1 VH 1 with L120M
VL 1: B1 VL 1
VH 2: B1 VH 2
VL 2: B1 VL 2
On to B13, for which the EC50 came out at 0.24 µg/mL with cynomolgus CD3 [9] and 0.59 µg/mL in the assay with human CD3 [2].

B14: IgG1-huCD3-H1L3 (antibody, V domains shown)
VH: B1 VH 1 with K13Q, R16G, I80S, S87N
VL: B1 VL 1
As to B14, the values for the EC50 with human CD3 [3] and in the assay with cynomolgus CD3 [4] were 0.06 µg/mL and 0.28 µg/mL, respectively.

B15: IgG1-CD3-LFLEDA (antibody, V domains shown)
VH: B1 VH 1 with V5L, K13Q, G15K, R16G, R19K, K78Q, S87N, S125A
VL: B8 VL 1
As to B15, the half-maximal effective concentration (EC50) with human CD3 [3] was determined as 0.08 µg/mL; with human CD3 [6], 0.27 µg/mL; with human CD3 [7], 0.07 µg/mL; with cynomolgus CD3 [1] it was 0.06 µg/mL; in the assay with cynomolgus CD3 [8], 0.47 µg/mL; with cynomolgus CD3 [5], 0.06 µg/mL. In addition, the concentration for a half-maximal effect (EC50) worked out at 0.18 µg/mL in the assay with human CD3 [2] and 0.3 µg/mL with cynomolgus CD3 [4].

B16: IgG1-huCD3-H1L2 (antibody, V domains shown)
VH: B1 VH 1 with K13Q, R16G, I80S, S87N
VL: B1 VL 1 with D87I, Y89F
For B16, the concentration giving a half-maximal response (EC50) with human CD3 [3] was 0.08 µg/mL; with cynomolgus CD3 [4], 0.31 µg/mL.

B17: bsIgG1-huCD3-H1L1×HER2-LFLEDA (bispecific antibody, V domains shown)
VH 1: B1 VH 1 with K13Q, R16G, I80S, S87N
VL 1: not shown
VH 2: B1 VH 2
VL 2: B1 VL 2
In turn, B17 gave an EC50 with cynomolgus CD3 [1] of 0.32 µg/mL.

B18: IgG1-huCD3-H3L1-LFLEDA (antibody, V domains shown)
VH: B1 VH 1
VL: not shown
For the molecule B18, the EC50 was 0.04 µg/mL with human CD3 [3]; 0.1 µg/mL with human CD3 [6]; 0.04 µg/mL with human CD3 [7]; 0.3 µg/mL with cynomolgus CD3 [8]; 0.04 µg/mL with cynomolgus CD3 [5]; 0.19 µg/mL in the assay with cynomolgus CD3 [4].

B19: IgG1-huCD3-H4L3-LFLEDA (antibody, V domains shown)
VH: B1 VH 1 with L120M
VL: B1 VL 1
Consider B19, for which the values for the EC50 with human CD3 [6] and with cynomolgus CD3 [5] were 0.08 µg/mL and 0.02 µg/mL, respectively.

Broadly, the EC50 is the concentration at which the effect is half-maximal. Read a low EC50 as greater potency.

The values above are taken from patent US20160333095A1 (published 2016).
